Laboratory results from PMC4149788 (The Febs Journal, 2014).

Target: GST-HAUSP (human, UniProt Q93009 1-1102)
Assay: pull-down

Chain of GST-HAUSP (Q93009 whole entry): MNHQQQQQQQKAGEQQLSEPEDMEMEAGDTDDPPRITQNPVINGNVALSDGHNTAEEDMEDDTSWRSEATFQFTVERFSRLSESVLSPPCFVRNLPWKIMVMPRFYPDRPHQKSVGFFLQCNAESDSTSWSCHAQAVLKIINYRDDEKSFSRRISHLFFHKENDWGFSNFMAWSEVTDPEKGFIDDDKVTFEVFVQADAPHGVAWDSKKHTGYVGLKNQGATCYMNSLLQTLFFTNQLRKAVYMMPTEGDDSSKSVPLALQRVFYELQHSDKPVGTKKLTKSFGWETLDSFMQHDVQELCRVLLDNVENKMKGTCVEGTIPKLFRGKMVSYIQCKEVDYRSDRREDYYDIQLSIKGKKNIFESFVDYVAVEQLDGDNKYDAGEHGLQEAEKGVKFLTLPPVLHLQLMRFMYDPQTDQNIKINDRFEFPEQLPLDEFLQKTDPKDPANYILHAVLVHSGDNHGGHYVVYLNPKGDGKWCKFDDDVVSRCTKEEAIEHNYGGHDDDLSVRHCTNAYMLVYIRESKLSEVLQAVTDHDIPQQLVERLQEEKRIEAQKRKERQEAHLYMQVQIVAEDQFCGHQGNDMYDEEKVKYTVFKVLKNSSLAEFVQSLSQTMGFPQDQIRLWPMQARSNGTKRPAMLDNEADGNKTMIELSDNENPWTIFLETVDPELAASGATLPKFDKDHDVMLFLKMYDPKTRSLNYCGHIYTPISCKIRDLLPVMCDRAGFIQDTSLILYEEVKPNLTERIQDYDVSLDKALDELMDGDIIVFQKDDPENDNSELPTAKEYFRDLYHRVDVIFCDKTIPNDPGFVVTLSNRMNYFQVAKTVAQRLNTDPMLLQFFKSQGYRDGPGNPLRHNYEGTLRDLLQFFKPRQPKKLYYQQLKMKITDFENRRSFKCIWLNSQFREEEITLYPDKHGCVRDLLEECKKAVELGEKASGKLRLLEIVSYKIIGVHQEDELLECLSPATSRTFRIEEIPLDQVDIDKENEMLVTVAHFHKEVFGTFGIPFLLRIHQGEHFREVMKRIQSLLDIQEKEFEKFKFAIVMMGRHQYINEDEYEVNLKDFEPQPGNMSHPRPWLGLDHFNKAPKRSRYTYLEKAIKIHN

binding result: binds
B1: Myc/His-Rb (Rb in pcDNA3.1-Myc/His B(-)) (natural protein, human, UniProt P06400 1-928, looked up)
chain: MPPKTPRKTAATAAAAAAEPPAPPPPPPPEEDPEQDSGPEDLPLVRLEFEETEEPDFTALCQKLKIPDHVRERAWLTWEKVSSVDGVLGGYIQKKKELWGICIFIAAVDLDEMSFTFTELQKNIEISVHKFFNLLKEIDTSTKVDNAMSRLLKKYDVLFALFSKLERTCELIYLTQPSSSISTEINSALVLKVSWITFLLAKGEVLQMEDDLVISFQLMLCVLDYFIKLSPPMLLKEPYKTAVIPINGSPRTPRRGQNRSARIAKQLENDTRIIEVLCKEHECNIDEVKNVYFKNFIPFMNSLGLVTSNGLPEVENLSKRYEEIYLKNKDLDARLFLDHDKTLQTDSIDSFETQRTPRKSNLDEEVNVIPPHTPVRTVMNTIQQLMMILNSASDQPSENLISYFNNCTVNPKESILKRVKDIGYIFKEKFAKAVGQGCVEIGSQRYKLGVRLYYRVMESMLKSEEERLSIQNFSKLLNDNIFHMSLLACALEVVMATYSRSTSQNLDSGTDLSFPWILNVLNLKAFDFYKVIESFIKAEGNLTREMIKHLERCEHRIMESLAWLSDSPLFDLIKQSKDREGPTDHLESACPLNLPLQNNHTAADMYLSPVRSPKKKGSTTRVNSTANAETQATSAFQTQKPLKSTSLSLFYKKVYRLAYLRLNTLCERLLSEHPELEHIIWTLFQHTLQNEYELMRDRHLDQIMMCSMYGICKVKNIDLKFKIIVTAYKDLPHAVQETFKRVLIKEEEYDSIIVFYNSVFMQRLKTNILQYASTRPPTLSPIPHIPRSPYKFPSSPLRIPGGNIYISPLKSPYKISEGLPTPTKMTPRSRILVSIGESFGTSEKFQKINQMVCNSDRVLKRSAEGSNPPKPLKKLRFDIEGSDEADGSKHLPGESKFQQKLAEMTSTRTRMQKQKMNDSMDTSNKEEK
